Among the data in paper PMC9399999 (2022) are koff values, retold here.

This assay addresses prototypic SARS-CoV-2 RBD (residues 319-541) (SARS-CoV-2 (prototype), UniProt P0DTC2 319-541). Description: SPR.

B1: S304 antibody (IgG1) (antibody, V domains shown)
VH: EVQLVESGGGLVQPGGSLRLSCAASGFTFSSYDMHWVRQTTGKGLEWVSTIGTAGDTYYPDSVKGRFTISREDAKNSLYLQMNSLRAGDTAVYYCARGDSSGYYYYFDYWGQGTLLTVSS
VL: DIQMTQSPSSLSAAVGDRVTITCRASQSIGSYLNWYQQKPGKAPKLLIYAASSLQSGVPSRFSGSGSGTDFTLTISSLQPEDFAIYYCQQSYVSPTYTFGPGTKVDIK
For B1, the koff – broadly, the first-order rate constant of dissociation – came to 0.00664 s⁻¹.
